Results from patent publication US20250197491A1 (MACOMICS, published 2025).

What was measured:
Human full length LILRB1 = target: T1, Human full length LILRB1 (human, UniProt Q8NHL6 24-650); experiment: flow cytometry, displacement of PE-labelled HLA-A2, HLA-E and HLA-G multimers from HEK293 cells overexpressing LILRB1
T1 construct: Over-expressed on HEK293 cells for flow cytometry; also called LILRB1 on HEK293 cells; cell membrane embedded LILRB1
Method: (§1) To investigate if the Antibodies 1 to 5 could neutralize binding of other HLA-As to LILRB1 or to LILRB2, HEK293 cells overexpressing the receptors were incubated with constant concentrations of PE-labelled HLA-A2, HLA-E, and HLA-G multimers and increasing concentrations of Antibodies 1 to 5 or the reference antibodies. The ability to neutralize binding of HLA to the cells was determined by flow cytometry (FIG. 21). None of Antibodies 1 to 5 neutralized binding of HLA-A (A), HLA-E (B), and […] to LILRB1 protein, up to the concentrations of 100 nM, whereas Reference 1 antibody (LILRB1 specific) and Reference 3 antibody (LILRB1/2 specific) neutralized the binding with an IC₅₀ in the sub- or low-nM range. Similarly, none of Antibodies 1 to 5 neutralised efficiently the binding of HLA-A (E) and HLA-G (G). […] Reference Antibody 2 (LILRB2 specific) and Reference Antibody 3 (LILRB1/2 specific), inhibited the binding for all HLAs, with IC₅₀ with sub- or low-nM range.

Human full length LILRB2 = target: T2, Human full length LILRB2 (human, UniProt Q8N423 22-597); experiment: flow cytometry, displacement of PE-labelled HLA-A2, HLA-E and HLA-G multimers from HEK293 cells overexpressing LILRB2
T2 construct: Over-expressed on HEK293 cells for flow cytometry; Also used here as the parent protein of the D3-D4 peptide microarrays; also called LILRB2 on HEK293 cells
Method: as §1

[1] = target: T3, Human LILRB1 (D1-D2) fused to mouse IgG2a Fc (human); experiment: summary table (ELISA); N = No
T3 construct: also called truncated (D1-D2) version of the LILRB1 ecto-domain

[2] = target: T4, human LILRB1 ectodomain fused to mIgG2a Fc (human); experiment: summary table (ELISA); Y = Yes
T4 construct: also called human LILRB1-mIgG2a; full length LILRB1 ectodomain

[3] = target: T5, Human LILRB1(L68P/A93T) ectodomain fused to mIgG2aFc (human); experiment: ELISA, antigen coated, 10 nM antibody
T5 construct: The entry already carries the two substitutions
Excerpt: (§2) FIG. 3. Mixed LILRB1 and LILRB2 expression in TAMs from melanoma cancer patients. Analysis of LILRB1 and LILRB2 detection in macrophages in pre- and post-anti-PD-1 and/or anti-CTLA-4 therapy treated melanoma patients (n=33) is shown using Smart-seq2 data from Sade-Feldman et al. https://pubmed.ncbi.nlm.nih.gov/30633907/FIG. 4. Binding to domains of human LILRB1. Plates were coated with recombinant full length LILRB1 ectodomain (SEQ ID NO: 41) or a protein comprising domain 1 and 2 of human LILRB1 protein (SEQ ID NO: 42), and then incubated with 10 nM Clones 1-5, Reference Ab 1, and Isotype control. The bound antibodies were detected using HRP-labeled secondary antibodies and the results were plotted on the graph as absorbance measured at 450 nm.
(§3) Binding to allelic forms of LILRB1. There are 4 major allelic variants of human LILRB1 protein ectodomain. The variants of LILRB1 were expressed as recombinant proteins comprising a modified LILRB1 ectodomain and mouse IgG2 Fc region (SEQ ID NO: 50 and 51) in suspension CHO cells, and purified by using techniques that were known in the art. These recombinant proteins were then used in the direct enzyme-linked immunosorbent assay (ELISA) to determine the antibodies potential to bind different allelic forms of LILRB1. In short, Maxisorp (Nunc) or similar immune-assay plates were coated with solutions of target proteins in PBS, at 4° C., overnight. Plates were then washed with PBS, blocked with 5% milk in PBS, and washed again. Test antibodies diluted in PBS were then added to the plates and incubated at room temperature for at least 1h. Plates were subsequently washed with PBS/0.05% Tween-20 (PBST) and incubated with a solution of horse radish peroxidase (HRP) labelled secondary antibodies at room temperature for at least 1 h. After washing with PBST and PBS, bound antibodies were detected using the 3,3′,5,5;-tetramethylbenzidine (TMB) chromogenic solution. After 5 to 10 minutes, the reaction was stopped with 1% sulphuric acid and absorbance read at 450 nm.
(§4) There are four major allelic variants within the ecto-domain of LILRB1 in human population [Human Molecular Genetics, 2005, Vol. 14, 2469-2480]; namely c.203T>C (L68P), c.277G>A (A93T), c.425T>C (I142T), and c.464G>T (S155I).

[4] = target: T6, Human LILRB1(I142T/S155I) ectodomain fused to mIgG2aFc (human); experiment: ELISA, antigen coated, 10 nM antibody
T6 construct: The entry already carries the two substitutions
Excerpt: as §2, §3, §4

Human LILRA2 ectodomain = target: T7, Human LILRA2 ectodomain (human, UniProt Q8N149 24-449); experiment: summary table (single point ELISA); N = No
T7 construct: Recombinant protein from a commercial source

[5] = target: LILRB4 recombinant, full-length ectodomain (LILRB4 17-257) (human, UniProt Q8NHJ6 22-257); experiment: summary table (single point ELISA); N = No
[6] = target: LILRB5 recombinant, full-length ectodomain (LILRB5 18-456) (human, UniProt O75023 24-456); experiment: summary table (single point ELISA); N = No
[7] = target: LILRA5 recombinant, full-length ectodomain (LILRA5 42-268) (human, UniProt A6NI73 42-268); experiment: summary table (single point ELISA); N = No
Human LILRA1 ectodomain = target: T8, Human LILRA1 ectodomain (human, UniProt O75019 17-461); experiment: multi-point ELISA, antigen coated, apparent EC50
T8 construct: Recombinant protein from a commercial source
Method: (§5) FIG. 32. Binding of Clones 1-5 to selected LILR family members tested by multiple point ELISA. Recombinant LILRB1, LILRB2, LILRB3, LILRA1, LILRA3, LILRA4, and LILRA6, or irrelevant control protein were coated on the ELISA plates. The plates were then blocked with milk in PBST. Next, the plates were incubated with serial dilutions (12.5 nM to 0.02 nM) of Clones 1-5 (A-E). Bound antibodies were detected using HRP-conjugated anti-human Fc antibodies and the chromogenic substrate.
as §5, with “Binding of” for “FIG. 32. Binding of”, “point ELISA. (FIG. 32) Recombinant LILRB1,” for “point ELISA. Recombinant LILRB1,”, “LILRA3, LILRA4, LILRA6, or” for “LILRA3, LILRA4, and LILRA6, or”, “nM) of Clone 1-5 (A-E).” for “nM) of Clones 1-5 (A-E).”

Human full length LILRA3 = target: T9, Human full length LILRA3 (human, UniProt Q8N6C8 24-439); experiment: multi-point ELISA, antigen coated, apparent EC50
T9 construct: Commercial recombinant protein; also the parent of the LILRA3 peptide microarrays
Method: as §5
as §5, with “Binding of” for “FIG. 32. Binding of”, “point ELISA. (FIG. 32) Recombinant LILRB1,” for “point ELISA. Recombinant LILRB1,”, “LILRA3, LILRA4, LILRA6, or” for “LILRA3, LILRA4, and LILRA6, or”, “nM) of Clone 1-5 (A-E).” for “nM) of Clones 1-5 (A-E).”

[8] = target: LILRB1 recombinant, full-length ectodomain (human, UniProt Q8NHL6 24-461); experiment: multi-point ELISA, antigen coated, apparent EC50
Method: as §5
as §5, with “Binding of” for “FIG. 32. Binding of”, “point ELISA. (FIG. 32) Recombinant LILRB1,” for “point ELISA. Recombinant LILRB1,”, “LILRA3, LILRA4, LILRA6, or” for “LILRA3, LILRA4, and LILRA6, or”, “nM) of Clone 1-5 (A-E).” for “nM) of Clones 1-5 (A-E).”

[9] = target: LILRB2 recombinant, full-length ectodomain (LILRB2 22-458) (human, UniProt Q8N423 22-458); experiment: multi-point ELISA, antigen coated, apparent EC50
Method: as §5
as §5, with “Binding of” for “FIG. 32. Binding of”, “point ELISA. (FIG. 32) Recombinant LILRB1,” for “point ELISA. Recombinant LILRB1,”, “LILRA3, LILRA4, LILRA6, or” for “LILRA3, LILRA4, and LILRA6, or”, “nM) of Clone 1-5 (A-E).” for “nM) of Clones 1-5 (A-E).”

[10] = target: LILRB3 recombinant, full-length ectodomain (LILRB3 24-443) (human, UniProt O75022 24-443); experiment: multi-point ELISA, antigen coated, apparent EC50
Method: as §5
as §5, with “Binding of” for “FIG. 32. Binding of”, “point ELISA. (FIG. 32) Recombinant LILRB1,” for “point ELISA. Recombinant LILRB1,”, “LILRA3, LILRA4, LILRA6, or” for “LILRA3, LILRA4, and LILRA6, or”, “nM) of Clone 1-5 (A-E).” for “nM) of Clones 1-5 (A-E).”

[11] = target: LILRA4 recombinant, full-length ectodomain (LILRA4 24-446) (human, UniProt P59901 24-446); experiment: multi-point ELISA, antigen coated, apparent EC50
Method: as §5
as §5, with “Binding of” for “FIG. 32. Binding of”, “point ELISA. (FIG. 32) Recombinant LILRB1,” for “point ELISA. Recombinant LILRB1,”, “LILRA3, LILRA4, LILRA6, or” for “LILRA3, LILRA4, and LILRA6, or”, “nM) of Clone 1-5 (A-E).” for “nM) of Clones 1-5 (A-E).”

[12] = target: LILRA6 recombinant, full-length ectodomain (LILRA6 24-447) (human, UniProt Q6PI73 24-447); experiment: multi-point ELISA, antigen coated, apparent EC50
Method: as §5
as §5, with “Binding of” for “FIG. 32. Binding of”, “point ELISA. (FIG. 32) Recombinant LILRB1,” for “point ELISA. Recombinant LILRB1,”, “LILRA3, LILRA4, LILRA6, or” for “LILRA3, LILRA4, and LILRA6, or”, “nM) of Clone 1-5 (A-E).” for “nM) of Clones 1-5 (A-E).”

[13] = target: T10, Rhesus monkey (Macaca mulatta) LILRB ectodomain fused to mIgG2a Fc (rhesus monkey (Macaca mulatta)); experiment: summary table (ELISA); Rhesus & Cyno LILRB1/2 binding; Y = Yes
T10 construct: also called rhesus LILRB-mIgG2a; rhesus LILRB protein

[14] = target: T11, Cynomolgus monkey (Macaca fascicularis) LILRB ectodomain fused to mIgG2a (cynomolgus monkey (Macaca fascicularis)); experiment: as above
T11 construct: also called cynomolgus LILRB protein
T11 sequence (chain, as listed by the source limits assumed): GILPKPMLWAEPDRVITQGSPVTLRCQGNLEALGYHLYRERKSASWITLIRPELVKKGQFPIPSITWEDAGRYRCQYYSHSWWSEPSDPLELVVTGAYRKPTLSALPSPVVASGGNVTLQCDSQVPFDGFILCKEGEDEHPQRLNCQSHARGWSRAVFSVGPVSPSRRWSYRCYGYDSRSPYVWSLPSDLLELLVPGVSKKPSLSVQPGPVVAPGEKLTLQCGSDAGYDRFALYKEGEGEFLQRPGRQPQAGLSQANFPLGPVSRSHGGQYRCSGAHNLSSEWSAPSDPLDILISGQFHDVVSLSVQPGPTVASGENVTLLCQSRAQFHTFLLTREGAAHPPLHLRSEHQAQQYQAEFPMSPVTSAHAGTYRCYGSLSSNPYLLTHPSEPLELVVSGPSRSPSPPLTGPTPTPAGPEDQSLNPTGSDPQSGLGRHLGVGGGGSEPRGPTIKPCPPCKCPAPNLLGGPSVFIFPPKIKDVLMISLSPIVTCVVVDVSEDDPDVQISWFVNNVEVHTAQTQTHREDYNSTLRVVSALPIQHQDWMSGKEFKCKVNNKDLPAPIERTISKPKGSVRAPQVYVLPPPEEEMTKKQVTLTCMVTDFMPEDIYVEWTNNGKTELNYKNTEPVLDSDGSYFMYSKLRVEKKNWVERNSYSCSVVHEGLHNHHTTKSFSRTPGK

T6 sequence (chain, as listed by the source I142T S155I I142T S155I limits assumed): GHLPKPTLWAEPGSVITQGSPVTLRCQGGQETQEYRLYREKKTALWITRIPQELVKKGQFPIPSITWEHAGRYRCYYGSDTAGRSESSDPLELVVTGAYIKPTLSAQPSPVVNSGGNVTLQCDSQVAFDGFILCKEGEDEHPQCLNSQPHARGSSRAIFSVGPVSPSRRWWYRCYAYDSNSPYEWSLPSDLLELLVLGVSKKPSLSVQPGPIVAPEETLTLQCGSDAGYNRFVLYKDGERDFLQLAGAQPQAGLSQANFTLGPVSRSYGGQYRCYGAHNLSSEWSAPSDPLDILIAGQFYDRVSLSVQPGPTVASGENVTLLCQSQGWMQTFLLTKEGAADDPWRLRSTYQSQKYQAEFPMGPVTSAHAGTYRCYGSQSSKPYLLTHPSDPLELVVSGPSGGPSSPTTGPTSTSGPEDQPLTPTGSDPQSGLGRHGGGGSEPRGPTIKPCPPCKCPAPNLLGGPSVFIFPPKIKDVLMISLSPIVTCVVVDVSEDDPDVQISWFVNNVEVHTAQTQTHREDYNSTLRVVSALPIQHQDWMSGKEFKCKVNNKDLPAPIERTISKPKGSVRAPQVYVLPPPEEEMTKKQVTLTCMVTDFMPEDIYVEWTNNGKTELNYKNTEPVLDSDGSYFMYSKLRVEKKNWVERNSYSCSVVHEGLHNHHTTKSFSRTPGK
Sequence of LILRB3 recombinant, full-length ectodomain (LILRB3 24-443) (O75022 24-443): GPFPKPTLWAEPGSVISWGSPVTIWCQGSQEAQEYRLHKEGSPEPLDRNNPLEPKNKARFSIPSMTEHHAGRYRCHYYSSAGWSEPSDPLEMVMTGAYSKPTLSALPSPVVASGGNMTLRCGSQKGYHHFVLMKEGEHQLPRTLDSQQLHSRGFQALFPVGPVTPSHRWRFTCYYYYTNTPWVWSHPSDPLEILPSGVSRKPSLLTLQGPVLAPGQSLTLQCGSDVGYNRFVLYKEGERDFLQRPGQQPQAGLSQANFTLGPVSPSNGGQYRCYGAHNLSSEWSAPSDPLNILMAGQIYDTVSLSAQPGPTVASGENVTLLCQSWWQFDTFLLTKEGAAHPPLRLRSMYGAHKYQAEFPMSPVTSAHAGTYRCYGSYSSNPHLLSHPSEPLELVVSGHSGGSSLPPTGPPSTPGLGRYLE
T2 sequence (Q8N423 other isoform, or with tags, fused parts or gaps limits assumed): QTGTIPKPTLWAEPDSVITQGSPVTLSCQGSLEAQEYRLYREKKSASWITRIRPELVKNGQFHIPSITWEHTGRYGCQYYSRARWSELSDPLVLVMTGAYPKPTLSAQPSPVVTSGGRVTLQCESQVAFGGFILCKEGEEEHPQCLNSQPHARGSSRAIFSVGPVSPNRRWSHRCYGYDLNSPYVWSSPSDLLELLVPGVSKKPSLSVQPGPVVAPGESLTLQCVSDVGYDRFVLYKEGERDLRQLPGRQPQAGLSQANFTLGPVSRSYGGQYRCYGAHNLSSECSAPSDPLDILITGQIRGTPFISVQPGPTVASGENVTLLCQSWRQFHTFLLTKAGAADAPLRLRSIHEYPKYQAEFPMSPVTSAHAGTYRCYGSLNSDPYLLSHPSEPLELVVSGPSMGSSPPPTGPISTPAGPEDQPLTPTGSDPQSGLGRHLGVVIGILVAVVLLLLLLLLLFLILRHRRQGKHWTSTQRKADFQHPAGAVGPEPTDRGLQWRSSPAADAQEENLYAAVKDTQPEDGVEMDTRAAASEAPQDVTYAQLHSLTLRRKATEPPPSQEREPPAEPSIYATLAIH
Sequence of LILRA5 recombinant, full-length ectodomain (LILRA5 42-268) (A6NI73 42-268): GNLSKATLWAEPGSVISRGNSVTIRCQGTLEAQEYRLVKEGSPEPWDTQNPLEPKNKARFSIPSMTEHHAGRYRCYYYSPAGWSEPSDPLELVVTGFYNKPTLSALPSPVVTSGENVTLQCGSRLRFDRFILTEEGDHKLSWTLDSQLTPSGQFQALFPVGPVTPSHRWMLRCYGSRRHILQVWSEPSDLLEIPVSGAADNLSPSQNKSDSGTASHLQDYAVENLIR
T1 sequence (Q8NHL6 24-650 limits assumed): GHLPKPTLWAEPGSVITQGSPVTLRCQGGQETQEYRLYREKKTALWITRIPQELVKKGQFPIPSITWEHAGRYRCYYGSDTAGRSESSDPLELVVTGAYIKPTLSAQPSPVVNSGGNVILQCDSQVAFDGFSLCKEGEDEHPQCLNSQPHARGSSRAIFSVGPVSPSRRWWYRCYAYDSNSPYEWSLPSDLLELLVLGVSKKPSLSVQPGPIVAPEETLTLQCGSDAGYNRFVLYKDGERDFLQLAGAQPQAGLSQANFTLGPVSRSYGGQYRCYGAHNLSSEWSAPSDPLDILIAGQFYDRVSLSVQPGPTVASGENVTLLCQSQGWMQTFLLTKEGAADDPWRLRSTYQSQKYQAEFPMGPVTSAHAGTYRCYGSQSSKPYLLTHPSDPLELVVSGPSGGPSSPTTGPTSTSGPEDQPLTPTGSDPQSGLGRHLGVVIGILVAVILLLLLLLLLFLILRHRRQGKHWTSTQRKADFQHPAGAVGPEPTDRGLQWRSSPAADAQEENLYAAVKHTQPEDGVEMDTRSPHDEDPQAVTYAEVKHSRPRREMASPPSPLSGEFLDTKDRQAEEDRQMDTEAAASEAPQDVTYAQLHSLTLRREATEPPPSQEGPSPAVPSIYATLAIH
T7 sequence (Q8N149 24-449 S135L): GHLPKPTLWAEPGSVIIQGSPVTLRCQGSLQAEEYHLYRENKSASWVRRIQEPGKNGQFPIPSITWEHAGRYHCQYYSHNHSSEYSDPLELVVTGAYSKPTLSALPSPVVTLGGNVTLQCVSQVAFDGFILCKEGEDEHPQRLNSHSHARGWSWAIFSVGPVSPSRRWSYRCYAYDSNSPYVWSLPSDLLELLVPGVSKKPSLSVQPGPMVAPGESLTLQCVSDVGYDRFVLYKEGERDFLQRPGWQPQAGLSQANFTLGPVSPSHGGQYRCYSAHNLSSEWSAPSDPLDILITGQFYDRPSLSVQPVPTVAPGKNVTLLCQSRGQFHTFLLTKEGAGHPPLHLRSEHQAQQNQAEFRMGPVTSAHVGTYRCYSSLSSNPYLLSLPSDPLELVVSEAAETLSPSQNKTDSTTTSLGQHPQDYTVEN
T4 sequence (chain, as listed by the source limits assumed): as the sequence (chain, as listed by the source I142T S155I I142T S155I limits assumed) above, with T119I, I132S counted along it
Sequence of LILRB1 recombinant, full-length ectodomain (Q8NHL6 24-461 limits assumed): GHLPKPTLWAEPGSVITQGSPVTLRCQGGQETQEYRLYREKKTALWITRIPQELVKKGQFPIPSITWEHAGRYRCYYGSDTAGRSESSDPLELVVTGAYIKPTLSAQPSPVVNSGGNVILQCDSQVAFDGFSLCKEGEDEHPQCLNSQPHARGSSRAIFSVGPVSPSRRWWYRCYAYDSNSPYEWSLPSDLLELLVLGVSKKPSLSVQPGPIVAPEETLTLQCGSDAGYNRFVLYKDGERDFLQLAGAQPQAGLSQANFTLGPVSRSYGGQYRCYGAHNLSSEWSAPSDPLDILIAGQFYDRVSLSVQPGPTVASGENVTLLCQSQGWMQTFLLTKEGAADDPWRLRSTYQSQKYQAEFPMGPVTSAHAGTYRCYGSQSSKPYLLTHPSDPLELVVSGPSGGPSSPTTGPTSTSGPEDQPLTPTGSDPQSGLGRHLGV
Sequence of LILRB2 recombinant, full-length ectodomain (LILRB2 22-458) (Q8N423 22-458): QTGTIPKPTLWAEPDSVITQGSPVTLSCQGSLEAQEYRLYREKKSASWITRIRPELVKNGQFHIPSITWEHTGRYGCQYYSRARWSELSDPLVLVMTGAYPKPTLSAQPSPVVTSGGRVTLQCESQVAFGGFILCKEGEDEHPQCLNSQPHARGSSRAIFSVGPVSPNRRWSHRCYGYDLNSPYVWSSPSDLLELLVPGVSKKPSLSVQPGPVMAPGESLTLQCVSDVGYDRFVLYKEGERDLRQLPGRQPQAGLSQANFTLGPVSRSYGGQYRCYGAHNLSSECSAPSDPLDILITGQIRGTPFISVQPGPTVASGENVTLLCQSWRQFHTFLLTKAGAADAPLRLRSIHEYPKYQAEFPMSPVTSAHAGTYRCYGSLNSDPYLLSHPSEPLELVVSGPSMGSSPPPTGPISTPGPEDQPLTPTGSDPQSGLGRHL
Sequence of LILRA4 recombinant, full-length ectodomain (LILRA4 24-446) (P59901 24-446): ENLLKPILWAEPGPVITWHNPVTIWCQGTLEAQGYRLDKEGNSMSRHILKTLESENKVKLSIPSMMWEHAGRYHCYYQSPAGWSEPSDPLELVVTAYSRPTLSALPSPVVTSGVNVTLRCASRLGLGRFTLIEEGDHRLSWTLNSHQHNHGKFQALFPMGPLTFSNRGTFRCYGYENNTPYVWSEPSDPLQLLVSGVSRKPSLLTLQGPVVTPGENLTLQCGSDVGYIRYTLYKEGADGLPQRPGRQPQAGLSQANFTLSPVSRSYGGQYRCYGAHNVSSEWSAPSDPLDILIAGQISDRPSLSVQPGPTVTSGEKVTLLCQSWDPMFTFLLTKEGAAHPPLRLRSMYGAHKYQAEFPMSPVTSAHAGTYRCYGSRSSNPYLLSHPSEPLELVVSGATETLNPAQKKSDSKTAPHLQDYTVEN

binding result (Human full length LILRB1) | binding result (Human full length LILRB2) | binding result [1] | binding result [2] | binding result [3] | binding result [4] | binding result (Human LILRA2 ectodomain) | binding result [5] | binding result [6] | binding result [7] | EC50 (Human LILRA1 ectodomain) [nM] | EC50 (Human full length LILRA3) [nM] | EC50 [8] [nM] | EC50 [9] [nM] | EC50 [10] [nM] | EC50 [11] [nM] | EC50 [12] [nM] | binding result [13] | binding result [14] | Binder
binds | binds | – | – | – | – | – | – | – | – | – | – | – | – | – | – | – | – | – | Reference Antibody 3 (anti-human LILRB1 and LILRB2 Ab) (antibody, V domains shown) VH: QVQLVQSGAEVKKPGASVKVSCKASGYTFTDYYINWVRQAPGQGLEWMGNVNPNDGGTTYNQKFKGRVTMTTDTSTSTAYMELRSLRSDDTAVYYCARREIYFYGTIYYYAMDYWGQGTLVTVSS VL: DIQLTQSPSFLSASVGDRVTITCRASESVDYYGNSFMYWYQQKPGKAPKLLIYFASNLESGVPSRFSGSGSGTEFTLTISSLQPEDFATYYCQQNNEDPWTFGGGTKVEIK
– | – | no binding | binds | binds | binds | no binding (tested: 1 nM) | no binding (tested: 1 nM) | no binding (tested: 1 nM) | no binding (tested: 1 nM) | 8.37 | 0.84 | 0.78 | 0.74 | 0.69 | 0.62 | 0.92 | binds | binds | Antibody 2 (antibody, V domains shown, Fully human antibody; IgG1 and IgG1 LALA variants also made for functional assays; also called Clone 2; Antibody Clone 2) VH: QVQLVESGGDLVKPGGSLRLSCAASGFTFRDYYMSWIRQAPGKGLEWVSYISPSGSTIFYADSVKGRFTISRDNAKNSLYLQMNSLRAEDTAVYYCAKDRVRLFDYWGQGTLVTVSS VL: EIVLTQSPATLSLSPGERATLSCRASQSVSSSYLAWYQQKPGQAPRLLIYGASTRATGIPARFSGSGSGTDFTLTISRLEPEDFAVYYCQQRSNWPITFGQGTRLEIK
